Assay results reported in US20220333113.
Positions count from the first letter of the chain named.

Tests used:
Assay in all cases: filter
Settings in all cases: J = PPdU at every J; SB18T0.01 + 1 mM DTT, 37 C
[1] = target: T1, RIG-I ΔCARDs (aa 229-925) (Homo sapiens) (UniProt O95786)
T1 sequence: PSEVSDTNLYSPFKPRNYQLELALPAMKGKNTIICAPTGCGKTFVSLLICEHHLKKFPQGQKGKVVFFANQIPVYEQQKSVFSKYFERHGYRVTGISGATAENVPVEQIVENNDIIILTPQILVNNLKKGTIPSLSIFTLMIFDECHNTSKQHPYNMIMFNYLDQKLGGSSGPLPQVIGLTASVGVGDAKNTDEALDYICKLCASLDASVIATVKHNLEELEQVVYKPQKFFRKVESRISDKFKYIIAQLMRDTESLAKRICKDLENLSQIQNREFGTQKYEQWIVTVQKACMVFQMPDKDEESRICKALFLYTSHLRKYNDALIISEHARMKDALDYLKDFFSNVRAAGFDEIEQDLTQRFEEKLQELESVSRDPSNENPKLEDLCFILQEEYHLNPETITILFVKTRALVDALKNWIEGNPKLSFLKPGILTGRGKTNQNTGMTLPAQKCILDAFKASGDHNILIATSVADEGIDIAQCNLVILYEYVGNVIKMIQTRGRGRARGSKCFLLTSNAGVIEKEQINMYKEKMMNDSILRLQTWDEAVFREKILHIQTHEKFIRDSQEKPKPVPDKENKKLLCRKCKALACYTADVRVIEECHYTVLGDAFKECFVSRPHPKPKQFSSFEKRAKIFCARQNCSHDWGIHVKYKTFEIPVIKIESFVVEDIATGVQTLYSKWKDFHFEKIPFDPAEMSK

[2] = target: T2, RIG-I D872A (Homo sapiens) (UniProt O95786)
T2 sequence: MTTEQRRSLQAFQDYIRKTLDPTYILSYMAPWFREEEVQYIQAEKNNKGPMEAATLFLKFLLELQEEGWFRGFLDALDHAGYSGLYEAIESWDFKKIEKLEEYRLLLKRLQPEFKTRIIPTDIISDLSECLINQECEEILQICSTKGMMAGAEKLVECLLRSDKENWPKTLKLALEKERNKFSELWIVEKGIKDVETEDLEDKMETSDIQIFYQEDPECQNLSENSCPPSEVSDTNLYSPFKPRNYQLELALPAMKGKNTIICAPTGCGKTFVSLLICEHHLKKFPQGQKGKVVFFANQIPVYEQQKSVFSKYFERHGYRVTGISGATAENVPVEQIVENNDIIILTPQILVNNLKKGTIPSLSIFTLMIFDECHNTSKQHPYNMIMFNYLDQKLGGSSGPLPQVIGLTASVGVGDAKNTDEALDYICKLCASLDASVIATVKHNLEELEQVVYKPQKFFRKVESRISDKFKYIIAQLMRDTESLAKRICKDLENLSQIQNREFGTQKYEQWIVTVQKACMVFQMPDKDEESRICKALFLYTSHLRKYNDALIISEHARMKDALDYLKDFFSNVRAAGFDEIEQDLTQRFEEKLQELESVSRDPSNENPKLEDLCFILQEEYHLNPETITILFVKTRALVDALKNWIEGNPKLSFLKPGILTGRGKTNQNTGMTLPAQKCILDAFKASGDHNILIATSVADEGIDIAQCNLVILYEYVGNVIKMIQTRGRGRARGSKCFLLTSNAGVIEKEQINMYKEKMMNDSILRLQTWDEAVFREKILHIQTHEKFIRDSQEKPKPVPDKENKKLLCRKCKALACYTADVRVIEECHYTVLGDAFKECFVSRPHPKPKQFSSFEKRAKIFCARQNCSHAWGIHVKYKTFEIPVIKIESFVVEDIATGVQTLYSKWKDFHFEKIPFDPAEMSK

[3] = target: T3, RIG-I K861A (Homo sapiens) (UniProt O95786)
T3 sequence: T2 sequence with K861A, A872D

“ATCTCTGTGTCATGTGTTTTAATGTCAGTTTAATGATGAGG [14832-55_8]” showed a Kd [1] of 0.013 nM, a Kd [2] of 0.61 nM and a Kd [3] of 0.89 nM.
